# Measurements as given in patent publication US20220110936A1, “PHARMACEUTICAL COMPOSITION FOR TREATMENT OF NEURODEGENERATIVE DISEASES OR DISEASES CAUSED BY ABNORMALITY OF RNA BINDING PROTEIN AND APPLICATIONS THEREOF” (Shanghai Institute of Organic Chemistry, Chinese Academy of …, priority 2019, published 2022).
# B1: PARG protein: purified PARG protein (Sigma), poly(ADP-ribose) glycohydrolase (protein, UniProt Q86W56 1-976, looked up)
# Poly(ADP-ribose) …: MNAGPGCEPCTKRPRWGAATTSPAASDARSFPSRQRRVLDPKDAHVQFRVPPSSPACVPGRAGQHRGSATSLVFKQKTITSWMDTKGIKTAESESLDSKENNNTRIESMMSSVQKDNFYQHNVEKLENVSQLSLDKSPTEKSTQYLNQHQTAAMCKWQNEGKHTEQLLESEPQTVTLVPEQFSNANIDRSPQNDDHSDTDSEENRDNQQFLTTVKLANAKQTTEDEQAREAKSHQKCSKSCDPGEDCASCQQDEIDVVPESPLSDVGSEDVGTGPKNDNKLTRQESCLGNSPPFEKESEPESPMDVDNSKNSCQDSEADEETSPGFDEQEDGSSSQTANKPSRFQARDADIEFRKRYSTKGGEVRLHFQFEGGESRTGMNDLNAKLPGNISSLNVECRNSKQHGKKDSKITDHFMRLPKAEDRRKEQWETKHQRTERKIPKYVPPHLSPDKKWLGTPIEEMRRMPRCGIRLPLLRPSANHTVTIRVDLLRAGEVPKPFPTHYKDLWDNKHVKMPCSEQNLYPVEDENGERTAGSRWELIQTALLNKFTRPQNLKDAILKYNVAYSKKWDFTALIDFWDKVLEEAEAQHLYQSILPDMVKIALCLPNICTQPIPLLKQKMNHSITMSQEQIASLLANAFFCTFPRRNAKMKSEYSSYPDINFNRLFEGRSSRKPEKLKTLFCYFRRVTEKKPTGLVTFTRQSLEDFPEWERCEKPLTRLHVTYEGTIEENGQGMLQVDFANRFVGGGVTSAGLVQEEIRFLINPELIISRLFTEVLDHNECLIITGTEQYSEYTGYAETYRWSRSHEDGSERDDWQRRCTEIVAIDALHFRRYLDQFVPEKMRRELNKAYCGFLRPGVSSENLSAVATGNWGCGAFGGDARLKALIQILAAAAAERDVVYFTFGDSELMRDIYSMHIFLTERKLTVGDVYKLLLRYYNEECRNCSTPGPDIKLYPFIYHAVESCAETADHSGQRTGT
# System: hnRNP A1
# Test: Immunoprecipitation/WB of hnRNP A1-Flag from HeLa cells with PARG added to the IP system
# Format: biochemical, human
# Description: The steps of HeLa cell culture and plasmid transfection are as described in Example 1. To increase the level of PARylation in HeLa cells after transfection with the plasmids described in 3.1.1, the cell culture medium was removed before collection, 500 μM hydrogen peroxide (diluted in PBS) was added to the cells followed by incubating for 10 min at 37° C. The stimulated HeLa cells can be used for subsequent experiments.
# Cells treated according to 3.1.2 were lysed with the following lysis buffer: 25 mM Tris-HCl pH 7.4, 150 mM NaCl, 1% NP-40, 1 mM EDTA, 5% glycerol, protease inhibitor (Roche), 20 μM Olaparib (Selleck) and 8 μM ADP-HPD (Millopore). For enrichment of TDP-43 with HA tag, the lysate was added with HA antibody (Mouse anti-HA (Proteintech)) for overnight incubation at 4° C. followed by enrichment of primary antibody-sample complexes with Dynabeads® Protein G beads (Novex) for 2 hours at room temperature; for Flag-tagged hnRNP Al, the lysate was added directly to anti-FLAG® M2 Affinity Gel (Sigma) followed by incubation at 4° C. To ablate the polyribose moiety in vitro, 1μ purified PARG protein (Sigma) was added to a mixture of anti-FLAG® M2 Affinity Gel (Sigma) and cell lysate, and incubated for 1 h at 37° C. After incubation, the product was washed 3-5 times with lysis buffer, and added with 4×LDS sample buffer (Invitrogen) and boiled at 95° C. for subsequent studies. […]
molecule,measurement,setting,value
B1,amount of endogenous TDP-43 protein co-precipitated with hnRNP A1,added to the IP system,significantly reduced
same,PARylation level of hnRNP A1 itself and PARylated proteins that interact with it,"hydrogen peroxide-stimulated HeLa, added to the IP system for 1 h",significantly reduced
